Experimental data as given in US20050227289A1 (published 2005).

T1: human erythropoietin receptor (EpoR) on UT-7/Epo cells (human, UniProt P19235 25-508)
T1 sequence (looked up): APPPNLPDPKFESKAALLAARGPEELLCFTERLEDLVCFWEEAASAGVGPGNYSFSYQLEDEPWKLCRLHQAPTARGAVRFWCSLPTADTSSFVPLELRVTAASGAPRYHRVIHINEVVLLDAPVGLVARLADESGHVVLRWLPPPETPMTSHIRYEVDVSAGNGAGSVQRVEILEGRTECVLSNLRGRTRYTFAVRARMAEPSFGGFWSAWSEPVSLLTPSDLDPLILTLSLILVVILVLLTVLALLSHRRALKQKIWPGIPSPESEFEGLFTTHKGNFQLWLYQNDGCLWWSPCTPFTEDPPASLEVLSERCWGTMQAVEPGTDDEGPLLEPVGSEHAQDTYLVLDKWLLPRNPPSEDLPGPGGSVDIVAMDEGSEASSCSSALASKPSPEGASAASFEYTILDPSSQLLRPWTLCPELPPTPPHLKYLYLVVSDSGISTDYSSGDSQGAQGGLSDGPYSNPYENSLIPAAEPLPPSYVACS

T2: soluble EpoR (EposR), soluble recombinant human erythropoietin receptor (human, UniProt P19235 25-250, limits assumed)
T2 construct: Called only 'soluble EpoR (EposR)'
T2 sequence (looked up): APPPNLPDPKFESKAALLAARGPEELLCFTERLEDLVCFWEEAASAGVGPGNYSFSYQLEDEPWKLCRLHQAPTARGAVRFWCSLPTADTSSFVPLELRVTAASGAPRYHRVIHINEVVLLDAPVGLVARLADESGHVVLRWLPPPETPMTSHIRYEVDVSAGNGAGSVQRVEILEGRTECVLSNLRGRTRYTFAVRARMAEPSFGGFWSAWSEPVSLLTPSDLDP

T3: soluble EpoR (EposR), soluble recombinant human erythropoietin receptor (human) (UniProt P19235)
T3 sequence (looked up): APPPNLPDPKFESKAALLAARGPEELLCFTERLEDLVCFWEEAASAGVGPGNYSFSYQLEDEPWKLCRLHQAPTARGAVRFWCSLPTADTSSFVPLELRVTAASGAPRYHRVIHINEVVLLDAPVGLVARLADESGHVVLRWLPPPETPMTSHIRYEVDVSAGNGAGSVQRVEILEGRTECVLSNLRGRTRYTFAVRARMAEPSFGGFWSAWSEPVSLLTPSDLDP


Legend:
[1] = biological target: T1, human erythropoietin receptor (EpoR) on …; experiment: cell-based or functional assay
[2] = biological target: T2, soluble EpoR (EposR), soluble …; experiment: equilibrium titration of soluble EpoR on yeast-displayed scFv at 37 C, flow cytometry, detection with MAB307 + anti-mouse RPE
Source text: FIG. 2 is a graph showing equilibrium binding of soluble EpoR with various Ab12 scFv constructs expressed on the surface of yeast cells. In FIG. 2, -▪- represents an Ab12 scFv construct comprising a Gly/Ser linker (WT), […] (SEQ ID NO:1) in both the tether and scFv linker positions, -●- represents an […] comprising linker 41, GENKVEYAPALMALS (SEQ ID NO:2) in the tether position and the Gly/Ser linker (WT) (SEQ ID NO:1) in the scFv linker position, -▴- represents an Ab12 scFv construct comprising linker 41 (SEQ ID NO:2) in the tether position and linker 40, […] (SEQ ID NO:3) in the scFv linker position, and -▾- represents an Ab12 scFv construct comprising linker 41 (SEQ ID NO:2) in the tether position and linker 34, […] (SEQ ID NO:4) in the scFv linker position.
Various single stranded oligonucleotides encoding Ab12 scFvs were co-transformed with a linearized “gapped” vector derived from pYD1 (Invitrogen, Carlsbad, Calif.) into yeast by techniques well known to practitioners in the art. Cell surface protein expression was compared by incubating the transformed yeast with increasing concentrations of soluble EpoR (EposR) at 37° C. (FIG. 2). Bound antigen was detected using a monoclonal antibody to EpoR, MAB307 obtained commercially from R and D Systems (Minneapolis, Minn.) followed by anti-mouse phycoerythrin (PE, Southern Biotech, Birmingham, Ala.). […]

[3] = biological target: T3, soluble EpoR (EposR), soluble recombinant human erythropoietin receptor (human); experiment: as above

Emax (cell proliferation, absorbance) [1] [absorbance] | Binder | also measured
1.98 | Ab12 IgG2/K (antibody, V domains shown) VH: QVQLQESGPGLVKPSETLSLTCTVSGASISSYYWSWIRQPPGKGLEWIGYIYYSGSTNYNPSLKSRVTISVDTSKNQFSLKLRSVTAADTAVYYCARERLGIGDYWGQGTLVTVSS VL: DIQLTQSPSSLSASVGDRVTITCRASQGIRNDLGWYQQKPGKAPKRLIYAASSLQSGVPSRFSGSGSGTEFTLTISSLQPEDFATYYCLQHNTYPPTFGQGTKVEIK | 
2.3 | Ab12.121 (antibody, IgG2, V domains shown) VH: QVQLQESGPGLVKPSETLSLTCTVSGASISSYYWSWIRQPPGKGLEWIGYIGGSGSTNYNPSLKSRVTISVDTSKNQFSLKLRSVTAADTAVYYCARERLGIGDYWGQGTLVTVSS VL: DIQLTQSPSSLSASVGDRVTITCRASQGIRNDLGWYQQKPGKAPKRLIYAASSLQSGVPSRFSGSGSGTEFTLTISSLQPEDFATYYCLQHNTYPPTFGQGTKVEIK | 
2.4 | Ab12.122 (antibody, IgG2, V domains shown) VH: QVQLQESGPGLVKPSETLSLTCTVSGASISSYYWSWIRQPPGKGLEWIGYIYGEGSTNYNPSLKSRVTISVDTSKNQFSLKLRSVTAADTAVYYCARERLGIGDYWGQGTLVTVSS VL: DIQLTQSPSSLSASVGDRVTITCRASQGIRNDLGWYQQKPGKAPKRLIYAASSLQSGVPSRFSGSGSGTEFTLTISSLQPEDFATYYCLQHNTYPPTFGQGTKVEIK | 
2.51 | Ab12.56 (antibody, V domains shown) VH: QVQLQESGPGLVKPSETLSLTCTVSGASISSYYWSWIRQPPGKGLEWIGYIAGTGSTNYNPSLKSRVTISVDTSKNQFSLKLRSVTAADTAVYYCARERLGIGDYWGQGTLVTVSS VL: DIQLTQSPSSLSASVGDRVTITCRASQGIRNDLGWYQQKPGKAPKRLIYAASSLQSGVPSRFSGSGSGTEFTLTISSLQPEDFATYYCLQHNTYPPTFGQGTKVEIK | 
2.7 | Ab12.123 (antibody, IgG2, V domains shown) VH: QVQLQESGPGLVKPSETLSLTCTVSGASISSYYWSWIRQPPGKGLEWIGYIGYEGSTNYNPSLKSRVTISVDTSKNQFSLKLRSVTAADTAVYYCARERLGIGDYWGQGTLVTVSS VL: DIQLTQSPSSLSASVGDRVTITCRASQGIRNDLGWYQQKPGKAPKRLIYAASSLQSGVPSRFSGSGSGTEFTLTISSLQPEDFATYYCLQHNTYPPTFGQGTKVEIK | 
2.81 | Ab12.6 (antibody, V domains shown) VH: QVQLQESGPGLVKPSETLSLTCTVSGASISSYYWSWIRQPPGKGLEWIGYIGGEGSTNYNPSLKSRVTISVDTSKNQFSLKLRSVTAADTAVYYCARERLGIGDYWGQGTLVTVSS VL: DIQLTQSPSSLSASVGDRVTITCRASQGIRNDLGWYQQKPGKAPKRLIYAASSLQSGVPSRFSGSGSGTEFTLTISSLQPEDFATYYCLQHNTYPPTFGQGTKVEIK | 
2.53 | Ab12.119 (antibody, IgG2, V domains shown) VH: QVQLQESGPGLVKPSETLSLTCTVSGASISSYYWSWIRQPPGKGLEWIGYIYGSGSTNYNPSLKSRVTISVDTSKNQFSLKLRSVTAADTAVYYCARERLGIGDYWGQGTLVTVSS VL: DIQLTQSPSSLSASVGDRVTITCRASQGIRNDLGWYQQKPGKAPKRLIYAASSLQSGVPSRFSGSGSGTEFTLTISSLQPEDFATYYCLQHNTYPPTFGQGTKVEIK | 
2 | Ab12.120 (antibody, IgG2, V domains shown) VH: QVQLQESGPGLVKPSETLSLTCTVSGASISSYYWSWIRQPPGKGLEWIGYIYYEGSTNYNPSLKSRVTISVDTSKNQFSLKLRSVTAADTAVYYCARERLGIGDYWGQGTLVTVSS VL: DIQLTQSPSSLSASVGDRVTITCRASQGIRNDLGWYQQKPGKAPKRLIYAASSLQSGVPSRFSGSGSGTEFTLTISSLQPEDFATYYCLQHNTYPPTFGQGTKVEIK | 
2.65 | Ab12.118 (antibody, IgG2, V domains shown) VH: QVQLQESGPGLVKPSETLSLTCTVSGASISSYYWSWIRQPPGKGLEWIGYIGYSGSTNYNPSLKSRVTISVDTSKNQFSLKLRSVTAADTAVYYCARERLGIGDYWGQGTLVTVSS VL: DIQLTQSPSSLSASVGDRVTITCRASQGIRNDLGWYQQKPGKAPKRLIYAASSLQSGVPSRFSGSGSGTEFTLTISSLQPEDFATYYCLQHNTYPPTFGQGTKVEIK | 
 | Ab12 WT/WT (scFv, not shown: Aga2/Xpress display part of pYD1 before the tether, and the C-terminal V5 and His tags) scFv: QVQLQESGPGLVKPSETLSLTCTVSGASISSYYWSWIRQPPGKGLEWIGYIYYSGSTNYNPSLKSRVTISVDTSKNQFSLKLRSVTAADTAVYYCARERLGIGDYWGQGTLVTVSSGGGGSGGGGSGGGGSDIQLTQSPSSLSASVGDRVTITCRASQGIRNDLGWYQQKPGKAPKRLIYAASSLQSGVPSRFSGSGSGTEFTLTISSLQPEDFATYYCLQHNTYPPTFGQGTKVEIK | Kd [2]: 9 nM
 | Ab12 41/34 (scFv, not shown: Aga2/Xpress display part of pYD1 before the tether, and the C-terminal V5 and His tags) scFv: QVQLQESGPGLVKPSETLSLTCTVSGASISSYYWSWIRQPPGKGLEWIGYIYYSGSTNYNPSLKSRVTISVDTSKNQFSLKLRSVTAADTAVYYCARERLGIGDYWGQGTLVTVSSGHEAAAVMQVQYPASDIQLTQSPSSLSASVGDRVTITCRASQGIRNDLGWYQQKPGKAPKRLIYAASSLQSGVPSRFSGSGSGTEFTLTISSLQPEDFATYYCLQHNTYPPTFGQGTKVEIK | Kd [2]: 8.5 nM
 | Ab12 41/WT (scFv, part only; not given: display fusion parts and tags, part only) scFv fusion displayed on yeast, part: GENKVEYAPALMALSQVQLQESGPGLVKPSETLSLTCTVSGASISSYYWSWIRQPPGKGLEWIGYIYYSGSTNYNPSLKSRVTISVDTSKNQFSLKLRSVTAADTAVYYCARERLGIGDYWGQGTLVTVSSGGGGSGGGGSGGGGSDIQLTQSPSSLSASVGDRVTITCRASQGIRNDLGWYQQKPGKAPKRLIYAASSLQSGVPSRFSGSGSGTEFTLTISSLQPEDFATYYCLQHNTYPPTFGQGTKVEIK | EC50 (read off the curve) [3]: 6 nM; Kd [3]: 5 nM
